Assay results reported in patent US20180360932A1 (OPKO BIOLOGICS, published 2018).

Legend:
[1] = target: MOD-5014 (FVIIa-CTP3, activated Factor VII-CTP-CTP-CTP) (human) (UniProt P08709); experiment: cell-based or functional assay
[2] = target: NovoSeven (commercial recombinant human FVIIa) (human) (UniProt P08709); experiment: cell-based or functional assay

Chain of Factor X (FX), P00742 (P00742 whole entry, looked up): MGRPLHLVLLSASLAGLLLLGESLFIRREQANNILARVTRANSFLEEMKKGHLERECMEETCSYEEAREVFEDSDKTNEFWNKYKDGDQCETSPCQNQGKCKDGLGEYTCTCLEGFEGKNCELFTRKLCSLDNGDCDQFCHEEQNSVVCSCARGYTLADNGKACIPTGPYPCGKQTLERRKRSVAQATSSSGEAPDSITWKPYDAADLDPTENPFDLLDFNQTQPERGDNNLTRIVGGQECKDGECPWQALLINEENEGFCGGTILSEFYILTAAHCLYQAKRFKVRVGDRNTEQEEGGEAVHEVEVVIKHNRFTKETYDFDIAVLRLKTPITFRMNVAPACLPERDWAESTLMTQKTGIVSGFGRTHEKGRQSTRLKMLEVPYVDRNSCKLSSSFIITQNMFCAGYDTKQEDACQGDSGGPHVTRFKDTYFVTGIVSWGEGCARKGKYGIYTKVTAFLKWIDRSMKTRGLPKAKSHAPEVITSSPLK

Anti thrombin III (ATIII) (from UniProt P01008 33-464)
% Inhibition of clotting activity, AT 1.050 ng/mL [1]: 25% | % Inhibition of clotting activity, AT 10.5 ng/mL [1]: 28% | % Inhibition of clotting activity, AT 105 ng/mL [1]: 25% | % Inhibition of clotting activity, AT 10,500 ng/mL [1]: 25% | % Inhibition of clotting activity, AT 105000 ng/mL [1]: 62% | % Inhibition of clotting activity, AT 525000 ng/mL [1]: 100% | Activity (mU/mL), clotting assay, AT 0 ng/mL (no inhibitor) [1]: 70.8 mU/mL | Activity (mU/mL), clotting assay, AT 1.050 ng/mL [1]: 52.9 mU/mL | Activity (mU/mL), clotting assay, AT 10.5 ng/mL [1]: 50.7 mU/mL | Activity (mU/mL), clotting assay, AT 105 ng/mL [1]: 53.3 mU/mL | Activity (mU/mL), clotting assay, AT 1,050 ng/mL [1]: 53.4 mU/mL | Activity (mU/mL), clotting assay, AT 10,500 ng/mL [1]: 53 mU/mL | Activity (mU/mL), clotting assay, AT 105000 ng/mL [1]: 27 mU/mL | Activity (mU/mL), clotting assay, AT 525000 ng/mL [1]: 0 mU/mL | O.D, FX activation by MOD-5014 (0.7 ng/ml), AT 0.16 µg/ml [1]: 1.18 O.D | O.D, FX activation by MOD-5014 (0.7 ng/ml), AT 0.8 µg/ml [1]: 1.07 O.D | O.D, FX activation by MOD-5014 (0.7 ng/ml), AT 4 µg/ml [1]: 1.14 O.D | O.D, FX activation by MOD-5014 (0.7 ng/ml), AT 20 µg/ml [1]: 1.11 O.D | O.D, FX activation by MOD-5014 (0.7 ng/ml), AT 100 µg/ml [1]: 0.974 O.D | O.D, FX activation by MOD-5014 (0.7 ng/ml), AT 500 µg/ml [1]: 0.975 O.D | O.D, FX activation by MOD-5014 (0.7 ng/ml), AT 1680 µg/ml [1]: 0.656 O.D | O.D, FX activation by MOD-5014 (0.7 ng/ml), control (no AT) [1]: 1.09 O.D | O.D., FX activation by MOD-5014 (0.7 ng/ml) with 1 U/µl heparin, AT 0.032 µg/ml [1]: 1.24 O.D. | O.D., FX activation by MOD-5014 (0.7 ng/ml) with 1 U/µl heparin, AT 0.16 µg/ml [1]: 1.24 O.D. | O.D., FX activation by MOD-5014 (0.7 ng/ml) with 1 U/µl heparin, AT 0.8 µg/ml [1]: 1.25 O.D. | O.D., FX activation by MOD-5014 (0.7 ng/ml) with 1 U/µl heparin, AT 4 µg/ml [1]: 1.26 O.D. | O.D., FX activation by MOD-5014 (0.7 ng/ml) with 1 U/µl heparin, AT 20 µg/ml [1]: 1.08 O.D. | O.D., FX activation by MOD-5014 (0.7 ng/ml) with 1 U/µl heparin, AT 100 µg/ml [1]: 0.404 O.D. | O.D., FX activation by MOD-5014 (0.7 ng/ml) with 1 U/µl heparin, AT 500 µg/ml [1]: 0.153 O.D. | O.D., FX activation by MOD-5014 (0.7 ng/ml) with 1 U/µl heparin, AT 1680 µg/ml [1]: 0.197 O.D. | O.D., FX activation by MOD-5014 (0.7 ng/ml), AT III constant 20 µg/ml, heparin 0.002 U/µl [1]: 1.29 O.D. | O.D., FX activation by MOD-5014 (0.7 ng/ml), AT III constant 20 µg/ml, heparin 0.01 U/µl [1]: 1.14 O.D. | O.D., FX activation by MOD-5014 (0.7 ng/ml), AT III constant 20 µg/ml, heparin 0.25 U/µl [1]: 0.917 O.D. | O.D., FX activation by MOD-5014 (0.7 ng/ml), AT III constant 20 µg/ml, heparin 1.25 U/µl [1]: 0.896 O.D. | O.D., FX activation by MOD-5014 (0.7 ng/ml), AT III constant 20 µg/ml, heparin 6.25 U/µl [1]: 1.02 O.D. | O.D., FX activation by MOD-5014 (0.7 ng/ml), Control [1]: 1.41 O.D. | % Inhibition of clotting activity, AT 1.050 ng/mL [2]: 21% | % Inhibition of clotting activity, AT 105 ng/mL [2]: 20% | % Inhibition of clotting activity, AT 10,500 ng/mL [2]: 30% | % Inhibition of clotting activity, AT 525000 ng/mL [2]: 100% | Activity (mU/mL), clotting assay, AT 0 ng/mL (no inhibitor) [2]: 88.1 mU/mL | Activity (mU/mL), clotting assay, AT 1.050 ng/mL [2]: 69.5 mU/mL | Activity (mU/mL), clotting assay, AT 10.5 ng/mL [2]: 68.4 mU/mL | Activity (mU/mL), clotting assay, AT 105 ng/mL [2]: 70.2 mU/mL | Activity (mU/mL), clotting assay, AT 1,050 ng/mL [2]: 66.8 mU/mL | Activity (mU/mL), clotting assay, AT 10,500 ng/mL [2]: 61.5 mU/mL | Activity (mU/mL), clotting assay, AT 105000 ng/mL [2]: 30.6 mU/mL | Activity (mU/mL), clotting assay, AT 525000 ng/mL [2]: 0 mU/mL | O.D, FX activation by NovoSeven (0.7 ng/ml), AT 0.16 µg/ml [2]: 1.23 O.D | O.D, FX activation by NovoSeven (0.7 ng/ml), AT 4 µg/ml [2]: 1.17 O.D | O.D, FX activation by NovoSeven (0.7 ng/ml), AT 20 µg/ml [2]: 1.15 O.D | O.D, FX activation by NovoSeven (0.7 ng/ml), AT 100 µg/ml [2]: 1.14 O.D | O.D, FX activation by NovoSeven (0.7 ng/ml), AT 500 µg/ml [2]: 0.933 O.D | O.D, FX activation by NovoSeven (0.7 ng/ml), AT 1680 µg/ml [2]: 0.784 O.D | O.D, FX activation by NovoSeven (0.7 ng/ml), control (no AT) [2]: 1.28 O.D | O.D., FX activation by NovoSeven (0.7 ng/ml) with 1 U/µl heparin, AT 0.032 µg/ml [2]: 1.16 O.D. | O.D., FX activation by NovoSeven (0.7 ng/ml) with 1 U/µl heparin, AT 0.16 µg/ml [2]: 1.19 O.D. | O.D., FX activation by NovoSeven (0.7 ng/ml) with 1 U/µl heparin, AT 0.8 µg/ml [2]: 1.22 O.D. | O.D., FX activation by NovoSeven (0.7 ng/ml) with 1 U/µl heparin, AT 4 µg/ml [2]: 1.17 O.D. | O.D., FX activation by NovoSeven (0.7 ng/ml) with 1 U/µl heparin, AT 20 µg/ml [2]: 1.04 O.D. | O.D., FX activation by NovoSeven (0.7 ng/ml) with 1 U/µl heparin, AT 100 µg/ml [2]: 0.503 O.D. | O.D., FX activation by NovoSeven (0.7 ng/ml) with 1 U/µl heparin, AT 500 µg/ml [2]: 0.201 O.D. | O.D., FX activation by NovoSeven (0.7 ng/ml) with 1 U/µl heparin, AT 1680 µg/ml [2]: 0.141 O.D. | O.D., FX activation by NovoSeven (0.7 ng/ml), AT III constant 20 µg/ml, heparin 0.002 U/µl [2]: 1.24 O.D. | O.D., FX activation by NovoSeven (0.7 ng/ml), AT III constant 20 µg/ml, heparin 0.01 U/µl [2]: 1.2 O.D. | O.D., FX activation by NovoSeven (0.7 ng/ml), AT III constant 20 µg/ml, heparin 0.25 U/µl [2]: 1.04 O.D. | O.D., FX activation by NovoSeven (0.7 ng/ml), AT III constant 20 µg/ml, heparin 1.25 U/µl [2]: 0.98 O.D. | O.D., FX activation by NovoSeven (0.7 ng/ml), AT III constant 20 µg/ml, heparin 6.25 U/µl [2]: 1 O.D. | O.D., FX activation by NovoSeven (0.7 ng/ml), Control [2]: 1.43 O.D.

B1: MOD-5000 (NovoSeven, commercial recombinant hFVIIa) (protein)
chain 1: ANAFLEELRPGSLERECKEEQCSFEEAREIFKDAERTKLFWISYSDGDQCASSPCQNGGSCKDQLQSYICFCLPAFEGRNCETHKDDQLICVNENGGCEQYCSDHTGTKRSCRCHEGYSLLADGVSCTPTVEYPCGKIPILEKRNASKPQGR
chain 2: IVGGKVCPKGECPWQVLLLVNGAQLCGGTLINTIWVVSAAHCFDKIKNWRNLIAVLGEHDLSEHDGDEQSRRVAQVIIPSTYVPGTTNHDIALLRLHQPVVLTDHVVPLCLPERTFSERTLAFVRFSLVSGWGQLLDRGATALELMVLNVPRLMTQDCLQQSRKVGDSPNITEYMFCAGYSDGSKDSCKGDSGGPHATHYRGTWYLTGIVSWGQGCATVGHFGVYTRVSQYIEWLQKLMRSEPRPGVLLRAPFP
Vmax (rate of FX activation by lipid-bound FVIIa in the absence of TF) (Factor X (FX), P00742): 0.253 nM FXa/min
